Reference: patent publication US9926369B2, “Methods for treating hepatocellular cancer by administering an anti-Ang-2 antibody” (Regeneron Pharmaceuticals, Inc., priority 2009, dated 2018)

Tests used:
[1] = target: biotin-hBA2 binding to hTie-2 (Homo sapiens, UniProt O15123); assay: ELISA blocking of biotinylated hBA2 binding to hTie-2-His; format: biochemical; details: 20 pM biotinylated hBA2; average of two separate experiments; read-out: Biotin - hBA2 Average IC50
Method: For this experiment, human Tie-2 conjugated to a histidine tag (hTie-2-His; SEQ ID NO:526) was used in a similar fashion to the hTie-2-mFc described above. Antibody concentrations from 5 nM were serially diluted three-fold. […] An average IC50 value for each antibody was calculated based on two separate experiments.

[2] = system: Tie-2 phosphorylation (Ang-2-mediated) in HUVECs; assay: Inhibition of Ang-2-mediated Tie-2 phosphorylation in FOXO1-adenovirus infected HUVECs; format: cell-based, human; details: antibody 0.5 μg/ml
Method: Further, the inventors have shown that infection of HUVECs with an adenovirus encoding FOXO1 results in expression and secretion of Ang-2, followed by activation of Tie-2 phosphorylation (Daly et al. 2006 PNAS 103:15491).
Anti-Ang-2 antibodies were tested for their ability to inhibit Tie-2 phosphorylation. Briefly, 7×10^5 HUVECs (Vec Technologies, Rensselaer, N.Y.) were plated in 6 cm cell culture dishes in 3.5 ml of MCDB131 Complete medium (Vec Technologies, Rensselaer, N.Y.). The following day, the cells were washed with Opti-MEM (Invitrogen Corp., Carlsbad, Calif.) and fed with 2 ml of Opti-MEM. […] Cells were then washed with MCDB131 and fed with 2 ml of MCDB131 containing anti-Ang-2 antibodies at a concentration of 0.5 μg/ml. At twenty hours post infection, cells were lysed and subjected to Tie-2 immunoprecipitation as described by Daly et al., Proc. Natl. Acad. Sci. USA 103:15491-15496 (2006). Immunoglobulin was collected on protein A/G beads (Santa Cruz Biotechnology, Santa Cruz, Calif.) for one hour. Beads were washed with cold lysis buffer and resuspended in SDS sample buffer for analysis by western blot with antibodies specific for phosphotyrosine (Millipore, Billerica, Mass.) or Tie-2. Signals were detected using HRP-conjugated secondary antibodies and ECL reagents (GE Healthcare, Piscataway, N.J.). X-Ray films were scanned and the phospho-Tie-2 and Tie-2 signals were quantified using ImageJ software. The phospho-Tie-2/Tie-2 ratios were used to determine the % inhibition for each anti-Ang-2 antibody (i.e. Percent inhibition=Reduction in phospho-Tie-2/Tie-2 as compared to control).

biotin-hBA2 binding to hTie-2, sequence (O15123 with tags, fused parts or gaps): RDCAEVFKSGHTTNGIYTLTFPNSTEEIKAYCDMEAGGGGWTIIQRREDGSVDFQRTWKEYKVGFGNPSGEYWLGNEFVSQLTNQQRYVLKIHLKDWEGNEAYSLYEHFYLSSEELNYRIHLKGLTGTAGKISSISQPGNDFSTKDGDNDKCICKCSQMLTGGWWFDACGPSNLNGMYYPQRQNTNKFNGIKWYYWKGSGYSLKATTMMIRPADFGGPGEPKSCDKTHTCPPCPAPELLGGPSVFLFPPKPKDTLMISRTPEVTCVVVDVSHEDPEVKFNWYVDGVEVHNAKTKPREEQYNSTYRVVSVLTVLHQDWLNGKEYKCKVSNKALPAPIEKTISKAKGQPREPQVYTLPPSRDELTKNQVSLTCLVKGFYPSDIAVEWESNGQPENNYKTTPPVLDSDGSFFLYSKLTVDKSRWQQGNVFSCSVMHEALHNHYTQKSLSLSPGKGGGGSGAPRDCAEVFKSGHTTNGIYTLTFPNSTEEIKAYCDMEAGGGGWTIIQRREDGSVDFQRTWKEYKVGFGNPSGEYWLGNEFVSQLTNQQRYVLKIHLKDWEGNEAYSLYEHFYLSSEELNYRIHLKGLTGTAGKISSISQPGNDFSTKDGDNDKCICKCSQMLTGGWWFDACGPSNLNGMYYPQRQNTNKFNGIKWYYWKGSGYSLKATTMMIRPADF

IC50 [1]: 0.0141 nM
B1: H1M728N: anti-Ang-2 antibody, HCVR/LCVR SEQ ID NOs 290/298 (antibody, V domains shown)
VH: EVQLVESGGDLVQPGGSLRLSCTASGFTFSKYWMTWVRQAPGRGLEWVANIKEDGNEKYFLDSVKGRFTISRDNAKDLLFLQMNSLRGEDTAVYYCVRDRGIEVAGPFDYWGQGTLVTVSS
VL: DIQMTQSPSTLSASVGDRVTVTCRASQTIINWLAWYQQKPGKAPKLLISKASSLESGVPSRFSGSGSGTEFTLTISSLQPDDFATYYCQQYNRYWTFGQGTMVEIK
Inhibition of Tie-2 phosphorylation [2]: ++ (50-75%)
